T1: biotin-conjugated KIFC1 (residues 1-50)
T1 sequence (peptide, biotin on the N-terminus): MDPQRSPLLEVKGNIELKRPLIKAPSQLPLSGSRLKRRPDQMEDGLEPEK


Target: T1, biotin-conjugated KIFC1 (residues 1-50)
Assay: BLI

Kd [nM] | koff [s⁻¹] | kon [M⁻¹ s⁻¹] | Binder
9.31 | 0.000682 | 73100 | 6CD1-IMGT IgG (antibody, V domains shown) VH: EVQLQQSGAELVKPGASVKLSCTASGFNIKDTYIHWVKQRPEQGLEWIGRIDPANGNTKYDPKFQGKATITADTSSNTAYLQLSSLTSEDTAVYYCARGYGSRSAMDYWGQGTSVTVS VL: DIVLTQSPASLAVSLGQRATISCRASQSLFNSRTRKNYMLWYQQKPGQPPKLLIYLASNLESGVPARFSGSGSGTDFTLNIHPVEEEDAATYYCQHSRELPWTFGGGTKLEIK
10.6 |  |  | 6C407 IgG (antibody, V domains shown) VH: EVQLQQSGAELVKPGASVKLSCTASGFNIKDTYIHWVKQRPEQGLEWIGRIDPANGNTKYDPKFQGKATITADTSSNTAYLQLSSLTSEDTAVYYCARGYGSRSAMDYWGQGTSVTVS VL: DIVLTQSPASLAVSLGQRATISCRASKSVSTSGYSYMLWYQQKPGQPPKLLIYLASNLESGVPARFSGSGSGTDFTLNIHPVEEEDAATYYCQHSRELPWTFGGGTKLEIK

Reference: paper PMC12104855
